Measured values published in patent US20220323495A1 (NATIONAL RESEARCH COUNCIL OF CANADA, published 2022).

T1: EGFRvIII amino acid residues 15 to 37 with Asp23 to Ala mutation, yeast-displayed (human, not fully specified)
T1 construct: The entry already carries the mutation
T1 peptide: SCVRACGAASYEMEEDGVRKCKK

T2: EGFRvIII amino acid residues 15 to 37 with Tyr25 to Ala mutation, yeast-displayed (human, not fully specified)
T2 construct: The entry already carries the mutation
T2 peptide: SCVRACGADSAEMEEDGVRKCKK

T3: EGFRvIII amino acid residues 15 to 37 with Glu26 to Ala mutation, yeast-displayed (human, not fully specified)
T3 construct: The entry already carries the mutation
T3 peptide: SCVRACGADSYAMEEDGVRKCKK

T4: EGFRvIII amino acid residues 15 to 37 with Gly31 to Ala mutation, yeast-displayed (human, not fully specified)
T4 construct: The entry already carries the mutation
T4 peptide: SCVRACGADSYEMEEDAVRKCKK

T5: EGFRvIII amino acid residues 15 to 37 with Val17 to Ala mutation, yeast-displayed (human, not fully specified)
T5 construct: The entry already carries the mutation
T5 peptide: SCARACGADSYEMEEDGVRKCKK


Key:
[1] = target: T1, EGFRvIII amino acid residues 15 to 37 …; test: flow cytometry on yeast displaying the Ala-mutated 15-37 fragment; normalized to Myc-tag; wild-type fragment = 100%
From the text: (§1) Assessment of the binding of anti-EGFRvIII monoclonal antibodies to the fusion proteins expressed on yeast cell surface was done by flow cytometry analysis. Yeast cells were labeled with both the anti-EGFRvIII monoclonal antibody and chicken anti-Myc antibody the latter being used to monitor the level of expression of the fusion protein. Following a wash step, binding of the primary antibodies is probed by a two-color indirect fluorescence labeling using a specific mouse and chicken secondary antibodies for each of the primary antibody respectively.
(§2) To further characterize mAb epitopes within the EGFRvIII 15-37 region, an alanine scan of this region was performed, and modified fragments were expressed at the surface of the yeast. […] The resulting DNAs were expressed at the surface of the yeast and each anti-EGFRvIII mAbs was tested on the corresponding yeast mutant strain by flow cytometry analysis. The original Ala19 and Ala22 were not mutated. Thus, this assay determined the contribution of each amino acid(s) in mAb binding in comparison to the original wild-type fragment (SEQ ID NO:5) which is attributed the value of 100%.

[2] = target: T2, EGFRvIII amino acid residues 15 to 37 …; test: flow cytometry on yeast displaying the mutated 15-37 fragment
From the text: as §1, §2

[3] = target: T3, EGFRvIII amino acid residues 15 to 37 …; test: as above
From the text: as §1, §2

[4] = target: T4, EGFRvIII amino acid residues 15 to 37 …; test: flow cytometry on yeast displaying the Ala-mutated 15-37 fragment; normalized to Myc-tag; wild-type fragment = 100%
From the text: as §1, §2

[5] = target: T3, EGFRvIII amino acid residues 15 to 37 …; test: as above
From the text: as §1, §2

[6] = target: T1, EGFRvIII amino acid residues 15 to 37 …; test: flow cytometry on yeast displaying the mutated 15-37 fragment
From the text: as §1, §2

[7] = target: T5, EGFRvIII amino acid residues 15 to 37 …; test: as above
From the text: as §1, §2

Binder | % of binding compared to the wild-type sequence [1] | binding result [2] | binding result [3] | % of binding compared to the wild-type sequence [4] | % of binding compared to the wild-type sequence [5] | binding result [6] | binding result [7]
F269-3D12 anti-EGFRvIII monoclonal antibody (antibody, V domains shown, Mouse hybridoma IgG, tested as supernatant or Protein G purified mAb; also called 3D12-2) VH: EVQLQQSGPELVKPGSSVRISCKASGYTFTDYNMDWVKQSHGKSLEWIGTINPNNGGTSYNQKFKGKATLTVDKSSSTAYMELRSLTSEDSAVYYCARVRQLGLWFAYWGQGTLVTVSA VL: EIVLTQSPALMAASPGEKVTITCSVSSSISSSNLHWYQQKSETSPKPWIYGTSNLASGVPVRFSGSGSGTSYSLTISSMEAEDAATYYCQQWSSYPLTFGSGTKLEIK | 62.4% | no binding | no binding | – | – | – | –
F265-5B7 anti-EGFRvIII monoclonal antibody (antibody, V domains shown, Mouse hybridoma IgG, tested as supernatant or Protein G purified mAb; also called 5B7-2) VH: QIQLVQSGPELKKPGETVMISCKASGYSFTNYGMNWVKQAPEKDLKWMGWINTYTGESRYVDEFKGRFAFSLETSVSIVYLKINNLKNEDMATYFCARGPNFDVWGTGTTVTVSS VL: not shown | – | – | – | 98.9% | 140% | no binding | no binding
